From patent US12710427B2, “Anti-human neurotensin receptor 1 antibody and use thereof” (National Health Research Institutes, priority 2020, dated 2026)
Substitutions are numbered along the chain they refer to. Numbers in names are those of the source. Entries after “also recorded” stand apart in the source; their conditions may differ.

B1: G96A: h7C3-1 variant, G96A in CDR L3 (antibody, V domains shown)
VH: QVQLQQPGSVLVRPGASVKLSCKASGYTFTSSWIHWAKQRPGQGLEWIGQIRPNSGNTYYNEKFKVKATLTVDTSSSTAYVDLSSLTSEDSAVYYCARYHYGFDYWGQGTLVTVSS
VL: DVLMTQTPLSLPVSLGDQASISCRSSQSIVHSNGNTYLEWYLQKPGQSPKLLIYKVSNRFSGVPDRFSGSGSGTDFTLKISRVEAEDLGVYYCFQASHLPWTFGGGTKLEIKR
B2: h7C3-4-MMAE: h7C3-4 conjugated with MMAE via cleavable valine-citrulline linker, average 3.8-4 MMAE per antibody (conjugate)
VH: B1 VH with S9T, T28A, D82E
VL: B1 VL with K79T, A96G, S97A
B3: H98A: h7C3-1 variant, H98A in CDR L3 (antibody, V domains shown)
VH: B1 VH
VL: B1 VL with A96G, H98A
B4: h7C3-2: 7C3 variant harboring Y100H mutation in CDR H3 and S97A mutation in CDR L3 (antibody, V domains shown)
VH: B1 VH
VL: B1 VL with A96G, S97A
B5: P100A: h7C3-1 variant, P100A in CDR L3 (antibody, V domains shown)
VH: B1 VH
VL: B1 VL with A96G, P100A
B6: h7C3-5: humanized variant; heavy chain SEQ ID NO: 15, light chain SEQ ID NO: 16 (antibody, V domains shown)
VH: QVQLVQSGAEVKKPGASVKVSCKASGYAFTSSWIHWVRQAPGQRLEWMGQIRPNSGNTYYNEKFKVRVTITRDTSASTAYMELSSLRSEDTAVYYCARYHYGFDYWGQGTLVTVSS
VL: DIVMTQTPLSLSVTPGQPASISCRSSQSIVHSNGNTYLEWYLQKPGQSPQLLIYKVSNRFSGVPDRFSGSGSGTDFTLKISRVEAEDVGVYYCFQGAHLPWTFGGGTKVEIKR
modifications: VH SEQUENCE; VL SEQUENCE
B7: h7C3-5-MMAE: h7C3-5 conjugated with MMAE via cleavable valine-citrulline linker, average 3.8-4 MMAE per antibody (conjugate)
VH: B6 VH
VL: B6 VL
modifications: non-natural residues
notes: h7C3-5 conjugated with MMAE via cleavable valine-citrulline linker, average 3.8-4 MMAE per antibody

Experiments:
[1] = biological target: T1, NTSR1 on A549 cells (Homo sapiens, UniProt P30989); experiment: Flow cytometry (FACS) binding of anti-NTSR1 antibodies on A549 cells; details: for binding affinity to cell surface NTSR1 compared with h7C3-1: FACS, h7C3-1 variants
T1 construct: endogenous in cells; host or cells: A549 (NSCLC)
Procedure: A total of 1×10^6 cells were reacted with an anti-NTSR1 antibody in 100 μL of FACS buffer (PBS containing 0.5% BSA) for 60 minutes at 4° C. and washed two times to remove excess antibody. Secondary FITC (BD Pharmingen™) conjugated mouse anti-human IgG antibodies were incubated for an additional 60 minutes on ice. Cells were washed again and followed by an additional incubation with 1 ml PBS containing 0.5 mg/mL propidium iodide at 4° C. for 10 minutes. Data were collected on 10,000 living cells by FACS (Bio-Red S3e cell sorter). Fluorescence intensity from channel FL-1 was calculated with Flow Jo flow […] cytometry analysis software.

[2] = tested on: cyclic ECL2 peptide of NTSR1; experiment: NTSR1-binding affinity ELISA (alanine scanning variants); parameters: species or system human; details: alanine scanning of CDR L3 of h7C3-1
Procedure: The NTSR1-binding capacity of different antibodies were measured by ELISA. Briefly, NeutrAvidin 96-well plates (Pierce Cat:15128) were coated with cyL2-Biotin peptides at a final concentration of 5 μg/ml at […]. On the following day, the coating solution was removed, and the plates were blocked with 5% (v/v) non-fat dry milk in phosphate buffer saline (PBS) for 1 hour. After washing with PBST, gradient concentrations of anti-NTSR1 antibodies were added in triplicate. After 1 hour of incubation, the plate was washed three times with PBST, followed by the addition of horseradish peroxidase (HRP)-conjugated goat anti-human IgG Fc antibody (100 μL) into each well for an additional hour at RT. Finally, 100 μL of tetramethylbenzidine (TMB) substrate was added into each well to produce color for visualization. After 2 minutes of incubation, 100 μL of 2M H2SO4 was used to stop the reaction. The absorbance of each well was read at 450 nm with a plate reader. Flow cytometry

[3] = tested on: A549; experiment: In vitro cell cytotoxicity assay (CellTiter-Glo); format: cell-based
Procedure: (§1) The number of living cells were determined using the CellTiter-Glo® Luminescent Cell Viability Assay (Promega G7571). Cells were plated in 96-well opaque Costar plates (Cat number 136101). In brief, 500-2500 cells in 90 μL media were added to each well in quadruplicate and allowed to adhere for 16 hours. Anti-NTSR1 (dose range: 0-500 nM), anti-NTSR1-MMAE (dose range: 0-500 nM) or Paclitaxel (dose range: 0-100 nM) were added in […] 72-120 hours, medium was removed, and 200 μL of CellTiter-Glo® viability reagent contain culture medium (1:1) was added to each well and placed on an orbital shaker in the dark for 2 minutes. The plate was allowed to sit at RT for 10 minutes before being read on a GloMax® Explorer Multimode Microplate Reader (GM3500).

[4] = tested on: PC-3; experiment: In vitro cell cytotoxicity assay (CellTiter-Glo); format: cell-based
Procedure: as §1

[5] = tested on: H1299 lung tumor xenograft; experiment: H1299 lung tumor xenograft model; format: in vivo, nude mice
Excerpt: (§2) Immuodeficient male NU/NU nude mice (for H1299 and PC-3 xenograft study) and male Fox Chase SCID® mice (for HA22T-Luc xenograft study) of 7-week-old purchased from BioLASCO were housed in sterilized cages equipped with an air filter and sterile bedding materials at the Laboratory Animal Center of the National Health Research Institutes (NHRI), which is an AAALAC International accredited facility. All mice were fed with sterilized water and chow ad libitum under 12-hour light/12-hour dark cycle throughout the study. On the day of tumor cell inoculation, the number of viable cells was counted by using a hemocytometer with trypan blue staining under a light microscope. Cells were suspended in phenol red-free medium [RPMI1640 (H1299) or DMEM (HA22T-Luc)] or PBS (PC-3) and Matrigel™ (356237, Matrigel® Matrix, Corning, MA, United States) in 1:1 ratio. H1299 (1×10^6 cells), HA22T-Luc (5×10^6 cells) and PC-3 (1×10^6 cells) were implanted subcutaneously into the left flank of either nude or SCID mice using a 1 mL syringe (needle 24G×1 inch). Tumor dimensions were measured with a digital caliper, and the tumor volume in mm^3 was calculated by the formula: Volume=(length×width^∧2)/2. Tumor-bearing mice were grouped (n=5-8 per group) and administered when the average tumor volume was approximately at 200 mm^3. In the 3 individual xenograft studies, human IgG (HU-GF-ED, Lot#120916DG, Molecular Innovations, MI, USA), h7C3-4, h7C3-3-MMAE and h7C3-4-MMAE were diluted in 1× Dulbecco's Phosphate Buffered Saline (02-023-5A, Biological Industries, CT, USA) freshly before dosing at concentration of 2.5 mg/ml. Cisplatin (KEMOPLAT, 1 mg/mL, 87200009AA, Fresenius Kabi, Bad Homburg, Germany) was purchased. In the H1299 xenograft study, tumor-bearing mice were divided into 5 groups (6 mice per group): Human IgG −10 mg/Kg group (negative control), Cisplatin—7 mg/Kg group (positive control), h7C3-3-MMAE —10 mg/Kg group, h7C3-4 −10 mg/Kg group and h7C3-4-MMAE −10 mg/Kg group. The mice were intravenously injected with 4 mL/Kg of dose volume by tail vein twice per week for 3 weeks, except for the Cisplatin group, which was once per week for 3 weeks. In the HA22T-Luc xenograft study, tumor-bearing mice were divided into 3 groups (8 mice per group): Human IgG −10 mg/Kg group (negative control), h7C3-3-MMAE −10 mg/Kg group and h7C3-4-MMAE (ADC) −10 mg/Kg group. The mice were intravenously injected with 4 mL/Kg of dose volume by tail vein twice per week for 2 weeks. In the PC-3 xenograft study, tumor-bearing mice were divided into 2 groups: no treatment group (5 mice) and h7C3-4-MMAE (ADC) −10 mg/Kg (8 mice). The mice in h7C3-4-MMAE −10 mg/Kg group were intravenously injected with 4 mL/Kg of dose volume by tail vein twice per week for 3 weeks. Each treatment was based on the body weight. Body weight and tumor size were measured twice weekly.
Nude mice were subcutaneously inoculated with NTSR1-expressing cells, H1299 (1×10^6 cells per mouse). When the tumors reached a volume of 200 mm^3, the tumor-bearing mice were grouped (n=6) and administered intravenously with human IgG (negative control), h7C3-3-MMAE, h7C3-4 and h7C3-4-MMAE, respectively, at 10 mg/Kg twice weekly for six doses. The Cisplatin (positive control) was administered intravenously at 7 mg/Kg weekly for three doses.

[6] = tested on: HA22T-Luc liver tumor xenografts; experiment: HA22T-Luc liver tumor xenograft model; format: in vivo, SCID mice
Excerpt: as §2
To compare the anti-tumor efficacies of h7C3-3-MMAE and h7C3-4 MMAE, an experiment was performed with 5×10^6 HA22T-luc liver cancer cells inoculated subcutaneously to SCID mice. Tumor-bearing mice were divided into 3 groups (n=8). When the tumors reached a volume of 200 mm^3, 10 mg/Kg of human IgG, h7C3-3-MMAE and h7C3-4 MMAE were administered intravenously, respectively, twice weekly for four doses.

[7] = tested on: PC3 prostate tumor xenograft; experiment: PC3 prostate tumor xenograft model; format: in vivo, nude mice
Excerpt: as §2, with “The mice were intravenously injected with 4 mL/Kg of dose volume by tail vein twice per week for 3 weeks, except for the Cisplatin group, which was once per week for 3 weeks. In the HA22T-Luc xenograft study, tumor-bearing mice were divided into 3 groups (8 mice per group): Human IgG −10 mg/Kg group (negative control), h7C3-3-MMAE −10 mg/Kg group and h7C3-4-MMAE (ADC) −10 mg/Kg group. The mice were intravenously injected with 4 mL/Kg of dose volume by tail vein twice per week for 2 weeks. In the PC-3 xenograft study, tumor-bearing mice were divided into 2 groups: no treatment group (5 mice) and h7C3-4-MMAE (ADC) −10 mg/Kg (8 mice). The mice in h7C3-4-MMAE −10 mg/Kg group were intravenously injected with 4 mL/Kg of dose volume by tail vein twice per week for 3 weeks. Each treatment was based on the body weight.” left out, “weekly. […]” for “weekly.”

[8] = 10 mg/kg i.v. twice weekly for six doses
[9] = 10 mg/Kg i.v. twice weekly for four doses

cyclic ECL2 peptide of NTSR1, sequence (P30989 206-234 limits assumed): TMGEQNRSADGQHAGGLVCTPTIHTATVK
T1 sequence (P30989 whole entry): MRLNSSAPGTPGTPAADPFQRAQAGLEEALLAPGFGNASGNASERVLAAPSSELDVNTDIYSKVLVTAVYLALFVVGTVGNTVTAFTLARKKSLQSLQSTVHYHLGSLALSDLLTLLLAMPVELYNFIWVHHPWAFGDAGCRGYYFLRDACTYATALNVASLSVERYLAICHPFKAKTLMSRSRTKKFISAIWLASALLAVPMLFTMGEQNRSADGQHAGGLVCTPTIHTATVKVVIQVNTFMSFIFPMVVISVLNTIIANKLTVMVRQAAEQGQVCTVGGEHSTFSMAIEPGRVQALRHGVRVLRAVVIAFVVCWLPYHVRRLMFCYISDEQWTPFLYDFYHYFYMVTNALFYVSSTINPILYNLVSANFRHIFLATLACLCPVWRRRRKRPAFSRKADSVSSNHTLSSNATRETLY

Molecule | binding affinity to cell surface NTSR1 compared with h7C3-1 [1] | effect on h7C3-1 affinity for peptide (in words) [2] | IC50 [3] [nM] | IC50 [4] [nM] | other results
B1 | significantly diminished | no effect | – | – | –
B2 | – | – | 33.5 ± 3.32 | 55.4 ± 5.17 | tumor growth (tumor volume) until/on day 35 [5, 8]: Prolonged regression of tumor; tumor growth (tumor volume) on day 18 ([5]; 10 mg/kg i.v. twice weekly for six doses, vs human IgG 10 mg/kg and Cisplatin 7 mg/kg): inhibited the tumor growth more potently; body weight ([5]; 10 mg/kg, H1299 xenograft mice): did not show body weight loss; tumor volume on day 15 [6, 9]: tumor regression; tumor volume until 36 days [6, 9]: prolonged regression of tumor; body weight ([6]; 10 mg/kg, HA22T-Luc xenograft mice): did not show body weight loss; antitumor efficacy [7, 8]: highly efficacious; tumor volume until day 60 [7, 8]: prolonged regression of tumor; body weight / general physiological conditions ([7]; 10 mg/kg, PC3 xenograft mice): did not induce any abnormalities; also recorded: did not cause body weight loss
B3 | slightly affects | no effect | – | – | –
B4 | higher affinity | no effect | – | – | FACS binding (%, 1 μg/ml) ([1]; A549 cells, antibody 1 μg/ml): 86.0%; FACS binding (%, 10 μg/ml) ([1]; A549 cells, antibody 10 μg/ml): 99.5%; EC50 ([1]; relative mean fluorescence intensity (MFI) on A549 cells): 1.5 ± 0.5 µg/mL
B5 | significantly diminished | no effect | – | – | –
B6 | – | – | > 500 | > 500 | –
B7 | – | – | 33.1 ± 1.72 | 56.5 ± 7.1 | –
